# The Immune Epitope Database (IEDB)
# Columns and labels:
# HLA-A*24:02 = assay: IEDB peptide-MHC binding, purified MHC/competitive/fluorescence; ≥ and ≤ were set here for values at or beyond the usual limits of such assays; conditions: source organism: Variola virus
# HLA-B*15:01 = assay: as above
# HLA-A*03:01 [1] = assay: as above
# HLA-A*11:01 = assay: as above
# HLA-A*02:01 [2] = assay: IEDB peptide-MHC binding, purified MHC/competitive/radioactivity; filed as Kd, often an IC50 or EC50 that approximates it; ≥ and ≤ were set here for values at or beyond the usual limits of such assays
# HLA-A*02:03 = assay: as above
# HLA-A*02:17 = assay: as above
# HLA-A*03:01 [3] = assay: IEDB peptide-MHC binding, purified MHC/competitive/fluorescence; filed as Kd, often an IC50 or EC50 that approximates it; ≥ and ≤ were set here for values at or beyond the usual limits of such assays
# HLA-A*68:02 = assay: IEDB peptide-MHC binding, purified MHC/competitive/radioactivity; filed as Kd, often an IC50 or EC50 that approximates it; ≥ and ≤ were set here for values at or beyond the usual limits of such assays
# HLA-A*02:02 = assay: as above
# HLA-A*02:06 = assay: as above
# HLA-A*02:01 [4] = assay: IEDB peptide-MHC binding, purified MHC/competitive/fluorescence; ≥ and ≤ were set here for values at or beyond the usual limits of such assays
# HLA-A*69:01 = assay: IEDB peptide-MHC binding, purified MHC/direct/fluorescence; filed as Kd, often an IC50 or EC50 that approximates it; ≥ and ≤ were set here for values at or beyond the usual limits of such assays; conditions: source organism: dengue virus type 3
# HLA-A*01:01 = assay: IEDB peptide-MHC binding, purified MHC/competitive/radioactivity; filed as Kd, often an IC50 or EC50 that approximates it; ≥ and ≤ were set here for values at or beyond the usual limits of such assays; conditions: source organism: Lassa virus Josiah
# HLA-A*26:01 = assay: as above; conditions: source organism: Lassa virus Josiah
# HLA-A*29:02 = assay: as above; conditions: source organism: Lassa virus Josiah
# HLA-A*30:01 = assay: as above; conditions: source organism: Lassa virus Josiah
# HLA-A*30:02 = assay: as above; conditions: source organism: Lassa virus Josiah
# HLA-A*32:01 = assay: as above; conditions: source organism: Lassa virus Josiah
# [5] = source organism: Zaire ebolavirus
# [6] = source organism: Dengue virus 3 Sri Lanka/1266/2000
# [7] = source organism: Trypanosoma cruzi
# [8] = source organism: Dengue virus 4 Philippines/H241/1956
# [9] = source organism: Vaccinia virus Copenhagen
# [10] = source organism: Dengue virus 1 Singapore/S275/1990
# [11] = source organism: Dengue virus 1 Brazil/97-11/1997
# [12] = source organism: Dengue virus 2 Jamaica/1409/1983
# [13] = source organism: Dengue virus 3 Martinique/1243/1999
# [14] = source organism: Vaccinia virus
# [15] = source organism: Lassa virus Josiah
sequence,measurement,setting,value
AQREIFSAW,IC50,HLA-A*24:02,38.6 nM
same,IC50,HLA-B*15:01; source organism: Variola virus,6520 nM
CAGDFAFHK,IC50,HLA-A*03:01 [1]; [5],63900 nM
same,IC50,HLA-A*11:01; [5],1390 nM
CLMMILPAAL,Kd,HLA-A*02:01 [2]; [6],15.4 nM
same,Kd,HLA-A*02:03; [6],39 nM
same,Kd,HLA-A*02:17; [6],170 nM
CLRIPMTDH,Kd,HLA-A*03:01 [3]; source organism: Listeria monocytogenes EGD-e,≥ 20000 nM
DLYEEEMREL,Kd,HLA-A*68:02; source organism: Homo sapiens,13500 nM
FLHKRFTLV,Kd,HLA-A*02:01 [2]; [7],0.614 nM
same,Kd,HLA-A*02:02; [7],0.256 nM
same,Kd,HLA-A*02:03; [7],0.116 nM
same,Kd,HLA-A*02:06; [7],1.37 nM
same,Kd,HLA-A*68:02; [7],1310 nM
FLMVLLIPEP,Kd,HLA-A*02:01 [2]; [8],31.4 nM
same,Kd,HLA-A*02:17; [8],≥ 44700 nM
GAMVEYVSA,IC50,HLA-A*02:01 [4]; [9],33400 nM
same,IC50,HLA-B*15:01; [9],25500 nM
GISRNTVKR,Kd,HLA-A*03:01 [3]; source organism: Escherichia coli 536,≥ 20000 nM
GMFRTVGQL,Kd,HLA-A*68:02; source organism: Homo sapiens,≥ 60000 nM
IIFILLMLV,Kd,HLA-A*02:01 [2]; [10],43.7 nM
same,Kd,HLA-A*02:03; [11],217 nM
same,Kd,HLA-A*02:06; [11],1170 nM
same,Kd,HLA-A*02:17; [10],328 nM
ILIGVIITWI,Kd,HLA-A*02:01 [2]; [12],91.5 nM
same,Kd,HLA-A*02:17; [12],17600 nM
ILTDGPERV,Kd,HLA-A*69:01,≥ 20000 nM
same,Kd,HLA-A*02:03; [13],130 nM
same,Kd,HLA-A*02:17; source organism: Dengue virus 3 China/80-2/1980,8970 nM
KAALSSLAK,IC50,HLA-A*03:01 [1]; [5],5420 nM
same,IC50,HLA-A*11:01; [5],483 nM
same,IC50,HLA-B*15:01; [5],≥ 110000 nM
KLSLTKLFS,IC50,HLA-A*02:01 [4]; source organism: Variola virus,2940 nM
same,IC50,HLA-A*03:01 [1]; source organism: Variola virus,33600 nM
KLSYRNKPS,IC50,HLA-A*02:01 [4]; [14],≥ 196000 nM
same,IC50,HLA-A*03:01 [1]; [14],≥ 282000 nM
KMARAGLGK,Kd,HLA-A*03:01 [3]; source organism: Burkholderia vietnamiensis G4,20.2 nM
KVHAVLTEK,Kd,HLA-A*03:01 [3]; source organism: Vibrio parahaemolyticus K5030,20.6 nM
LAIPPTAGV,Kd,HLA-A*68:02; [13],3.16 nM
LFGIKCIKK,IC50,HLA-A*03:01 [1]; [14],31700 nM
same,IC50,HLA-A*11:01; [14],8170 nM
LISIFLHLV,Kd,HLA-A*01:01,1910 nM
same,Kd,HLA-A*02:01 [2]; [15],47.2 nM
same,Kd,HLA-A*02:02; [15],11.1 nM
same,Kd,HLA-A*02:03; [15],20.8 nM
same,Kd,HLA-A*02:06; [15],80.4 nM
same,Kd,HLA-A*26:01,10300 nM
same,Kd,HLA-A*29:02,11800 nM
same,Kd,HLA-A*30:01,1170 nM
same,Kd,HLA-A*30:02,9090 nM
same,Kd,HLA-A*32:01,6700 nM
same,Kd,HLA-A*68:02; [15],65.2 nM
LLGLWGFAAL,Kd,HLA-A*02:01 [2]; [7],222 nM
same,Kd,HLA-A*02:02; [7],28.2 nM
same,Kd,HLA-A*02:03; [7],36 nM
same,Kd,HLA-A*02:06; [7],466 nM
same,Kd,HLA-A*68:02; [7],≥ 125000 nM
LLILCVTQV,Kd,HLA-A*02:01 [2]; [12],27.2 nM
same,Kd,HLA-A*02:03; [12],7.56 nM
same,Kd,HLA-A*02:17; [12],5970 nM
